Experimental data taken from patent publication US8507431B2, “Methods for accelerating wound healing by administration of a preadipocyte modulator or an adipocyte modulator” (HealOr Ltd., priority 2003, dated 2013).

B1: adiponectin (protein, UniProt Q15848 19-244, looked up)
Adiponectin: ETTTQGPGVLLPLPKGACTGWMAGIPGHPGHNGAPGRDGRDGTPGEKGEKGDPGLIGPKGDIGETGVPGAEGPRGFPGIQGRKGEPGEGAYVYRSAFSVGLETYVTIPNMPIRFTKIFYNQQNHYDGSTGKFHCNIPGLYYFAYHITVYMKDVKVSLFKKDKAMLFTYDQYQENNVDQASGSVLLHLEVGDQVWLQVYGEGERNGLYADNDNDSTFTGFLLYHDTN
notes: adipokine
B2: IL-4: adipokine hIL-4 (protein, UniProt P05112 25-153, looked up)
Interleukin-4: HKCDITLQEIIKTLNSLTEQKTLCTELTVTDIFAASKNTTEKETFCRAATVLRQFYSHHEKDTRCLGATAQQFHRHKQLIRFLKRLDRNLWGLAGLNSCPVKEANQSTLENFLERLKTIMREKYSKCSS
B3: visfatin (protein, UniProt P43490 1-491, looked up)
Nicotinamide …: MNPAAEAEFNILLATDSYKVTHYKQYPPNTSKVYSYFECREKKTENSKLRKVKYEETVFYGLQYILNKYLKGKVVTKEKIQEAKDVYKEHFQDDVFNEKGWNYILEKYDGHLPIEIKAVPEGFVIPRGNVLFTVENTDPECYWLTNWIETILVQSWYPITVATNSREQKKILAKYLLETSGNLDGLEYKLHDFGYRGVSSQETAGIGASAHLVNFKGTDTVAGLALIKKYYGTKDPVPGYSVPAAEHSTITAWGKDHEKDAFEHIVTQFSSVPVSVVSDSYDIYNACEKIWGEDLRHLIVSRSTQAPLIIRPDSGNPLDTVLKVLEILGKKFPVTENSKGYKLLPPYLRVIQGDGVDINTLQEIVEGMKQKMWSIENIAFGSGGGLLQKLTRDLLNCSFKCSYVVTNGLGINVFKDPVADPNKRSKKGRLSLHRTPAGNFVTLEEGKGDLEEYGQDLLHTVFKNGKVTKSYSFDEIRKNAQLNIELEAAHH
notes: insulin-mimetic hormone secreted from visceral adipose tissue

Legend:
[1] = test system: Full thickness wounds on the back of C57BL mice; assay: Wound healing assay, full thickness incision wounds in mice; assay type: in vivo
Experimental: […] […] Wound biopsies were sampled, processed and analyzed morphologically and/or histochemically and/or immunohistochemically for various wound healing parameters, i.e., wound contraction, adipocytes migration and differentiation, epidermal migration, and epidermal closure.
The wound area was measured and compared to untreated control wounds; and wound contraction was calculated as the percent reduction of the wound area.
Wound biopsies were fixed in 4% paraformaldehyde then dehydrated in increasing concentrations of ethanol (50-100%). The dehydrated preparations were immersed first in xylene, then paraffin and xylene 1:1 solution, then in pure melted paraffin (60° C.). The paraffin blocks were then sectioned by a microtome and the sections were mounted on Super Frost^+™ slides.
Paraffin embedded wound-section slides were incubated at 60° C. for 60 minutes and were de-parafinated by washing the slides twice with toluene (100%) for 10 minutes, then rehydrated in decreasing concentration of ethanol (100-50%) for 5 minutes each. The slides were stained with hematoxylin (ready to use solution) for 10 minutes, rinsed with water, stained with eosin (0.5% in DDW) for 5 minutes, and then washed with 70% ethanol by 2 quick immersions. Thereafter, the slides were dehydrated by washing once with 95% ethanol for 2 minutes, twice with 100% ethanol for 5 minutes, and twice with xylene (100%) for 10 minutes, then mounted with entellan (MERCK Darmstadt Germany).
Paraffin embedded wound-section slides were de-parafinated as described for H&E staining above and incubated in blocking solution (5% BSA and 0.5% Tween 20™ in PBS) for 1 hour. […]
The effect of inhibiting or enhancing the activity of PPARγ using PPARγ antogonist and agonist, respectively, on wound healing was also evaluated in vivo. […]
The effect of adipsin (complementing Factor D, which is secreted from adipocytes) on wound healing was evaluated in vivo. […] The mice were sacrificed 6 days after wounding and the wounds were then analyzed. […]

[2] = test system: primary skin fibroblasts; assay: Fibroblasts scratch migration assay in vitro; assay type: cell-based; details: 24 hrs; for fibroblasts migration to close the wound gap vs non-treated and insulin: hIL-8 5 ng/ml, hIL-1β 0.2 ng/ml, hIL-4 2 ng/ml, apelin 0.2 μg/ml, adiponectin 1 μg/ml
Experimental: Primary skin fibroblasts were isolated and plated on 5 ml non-coated dishes until confluence in low Ca^2+ medium, and an artificial crossover scratch was formed in each dish with a 200 μm tip. Cells were either non-treated (control) or treated with insulin (0.1 unit/ml), hIL-8 (5 ng/ml), hIL-1β (0.2 ng/ml), hIL-4 (2 ng/ml), apelin (0.2 μg/ml) or adiponectin (1 μg/ml); and collected after 24 hrs.
Primary keratinocytes/fibroblasts were isolated and plated on 5 ml non-coated dishes until confluence in low Ca^2+ medium, and an artificial cross-over scratch was formed in each dish with a 200 μm tip. Then, cells were either non-treated or treated with visfatin (0.1 μg/ml or 0.0.1 μg/ml) or insulin (0.1 unit/ml) for up to 48 hrs.

[3] = test system: primary keratinocytes; assay: Keratinocytes migration (wound scratch) assay in vitro; assay type: cell-based, murine
Experimental: (§1) Primary keratinocytes were isolated from newborn skin as described in reference 18. Keratinocytes were cultured in Eagle's Minimal Essential Medium (EMEM) containing 8% Chelex (Chelex-100, BioRad) treated fetal bovine serum. To maintain a proliferative basal cell phenotype, the final Ca^2+ concentration was adjusted to 0.05 mM. Experiments were performed five to seven days after plating.
Primary mouse keratinocytes were untreated or treated with, PPARγ antagonist GW9662 (μM) or PPARγ agonist troglitazone (μM). Wound Scratch Assay was performed 24 hours following treatment, and representative fields were photographed immediately after the wounding (Day 0) and 48 hours later (Day 2). The average of wound closure represented as percentage in comparison to the initial width of the wound scratch (% of wound closure).
The effect of inhibiting or enhancing the activity of peroxisome proliferators-activated receptor gamma (PPARγ) on keratinocytes migration was evaluated utilizing the in vitro migration assay. Thus, primary keratinocytes were isolated and plated on 5 ml non-coated dishes until confluence in low Ca^2+ medium, and an artificial crossover scratch was formed in each dish with a 200 μm tip. Cells were either non-treated (control) or treated daily with PPARγ modulators.
In order to test the effect of different adipokines on keratinocyte migration to close the wound gap, an in vitro scratch assay was used. Thus, primary keratinocytes were isolated and plated on 5 ml non-coated dishes until confluence in low Ca^2+ medium, and an artificial crossover scratch was formed in each dish with a 200 μm tip. Cells were either non-treated (control) or treated daily with insulin (0.1 unit/ml), hIL-4 (2 ng/ml), hIL-6 (0.2 ng/ml), leptin (4 μg/ml) or apelin (0.02 μg/ml or 0.2 μg/ml).
Primary keratinocytes/fibroblasts were isolated and plated on 5 ml non-coated dishes until confluence in low Ca^2+ medium, and an artificial cross-over scratch was formed in each dish with a 200 μm tip. […]

[4] = test system: primary keratinocytes; assay: Differentiation assay for filaggrin (western blot); assay type: cell-based, murine; details: visfatin 0.01 and 0.1 μg/ml, 24 hrs
Experimental: as §1
Primary keratinocytes were isolated, plated on 100 mm tissue dishes and maintained for 5 days in medium with low Ca^2+ (0.05 mM) until reaching 80% confluence. Then, cells were either non-treated (control) or treated with visfatin (0.01 μg/ml or 0.1 μg/ml). Terminal differentiation was induced by adding Ca^2+ to the medium 6 hrs post treatment. 24 hrs post treatment cells were lysed and analyzed for filaggrin expression by western blot analysis.

[5] = test system: primary keratinocytes; assay: Western blot analysis for PCNA expression (proliferation marker); assay type: cell-based, murine; details: visfatin 0.01 μg/ml, 24 hrs post treatment
Experimental: as §1
(§2) Primary keratinocytes were isolated, plated on 100 mm tissue dishes and maintained for 5 days in medium with low Ca^+ (0.05 mM) until 80% confluence. Then, cells were either non-treated (control) or treated with insulin (0.1 unit/ml, 1 μM) or visfatin (0.01 μg/ml or 0.1 μg/ml). 24 hrs post treatment cells were lyzed and analyzed for PCNA expression by western blot analysis.

[6] = test system: primary keratinocytes; assay: Differentiation assay for Keratin 1 (western blot); assay type: cell-based, murine; details: visfatin 0.01 or 0.1 μg/ml, 24 hrs; vs non treated and insulin treated cells
Experimental: as §1
as §2, with “low Ca^2+” for “low Ca^+”, “were lysed” for “were lyzed”, “for K1 (Keartin 1)” for “for PCNA”

[7] = test system: primary keratinocytes; assay: Thymidine incorporation assay; assay type: cell-based, murine
Experimental: as §1
Primary keratinocytes were isolated, plated on 6 well tissue dishes and maintained for 5 days in medium with low Ca^2+ (0.05 mM) until 80% confluence. Then, cells were either non-treated (control) or treated with visfatin (0.1 μg/ml or 0.01 μg/ml) for 24 hrs. 6 hrs post treatment Ca^2+ mM was added to the medium, and the next day, cells were pulsed with [^3H]thymidine (1 uCi/ml) for 1 hour. After incubation, cells were washed three times with PBS and 5% trichloroacetic acid (TCA) was added into each well for 1 hour. The solution was then removed and cells were stabilized in 1M NaOH. The labeled thymidine incorporated into the cells was counted in a ^3H-window of a Tricarb liquid scintillation counter.

[8] = visfatin 0.01 μg/ml daily for 7 days

| Molecule | healing parameters (epidermal closure, dermal contraction, matrix remodeling) ([1]; adiponectin 1 μg/ml daily for 7 days, 20 mm incision, H&E and Masson Trichrome) | fibroblasts migration to close the wound gap vs non-treated and insulin [2] | keratinocyte migration in scratch assay vs control and insulin ([3]; treated daily, 24 and 48 hrs, hIL-4 2 ng/ml, apelin 0.2 μg/ml) | filaggrin levels (terminal differentiation) [4] | PCNA expression levels in keratinocytes [5] | keratinocyte differentiation (Keratin 1 expression) [6] | proliferation rate under conditions promoting cell differentiation ([7]; Ca2+ 0.12 mM addition to the medium, visfatin 0.1 or 0.01 μg/ml) | thymidine incorporation (proliferation) ([7]; visfatin 0.01 μg/ml vs 0.1 μg/ml and controls, 24 hrs) | migration of keratinocytes relative to controls ([3]; visfatin 0.1 μg/ml or 0.01 μg/ml, up to 48 hrs) | migration of keratinocytes ([3]; visfatin 0.1 μg/ml, 48 hrs) | adipocytes at the wound site [1, 8] | inflammation in the wound [1, 8] | fibroblast migration and proliferation ([2]; visfatin 0.01 μg/ml, insulin 0.1 unit/ml as comparison) |
| --- | --- | --- | --- | --- | --- | --- | --- | --- | --- | --- | --- | --- | --- |
| B1 | better healing parameters | promoted fibroblasts migration to completely close the wound gap |  |  |  |  |  |  |  |  |  |  |  |
| B2 |  | did not induce any additional effect compared to controls | keratinocyte migration was highly significant |  |  |  |  |  |  |  |  |  |  |
| B3 |  |  |  | marked elevation in filaggrin levels | significantly decreased | promotes keratinocyte differentiation primarily terminal differentiation | inhibited even further | lower thymidine incorporation than the higher dose (0.1 μg/ml) and controls | does not halt or interfere with migration of keratinocytes | induced migration in keratinocytes though not significantly | attracts adipocytes to the wound site | reduces inflammation | promotes fibroblast migration and proliferation to the extent of insulin treatment |
